Results reported in patent US20080311122A1, “Antagonists of Hmgb1 and/or Rage and Methods of Use Thereof” (Medimmune, LLC, priority 2005, published 2008).

Columns and labels:
[1] = tested on: AIA rat model of arthritis; assay: Adjuvant-induced arthritis (AIA) rat model; type: in vivo; settings: percent protection, isotype control subtracted
Method: Induction of Adjuvant Induced Arthritis […]: Six-eight week old female DA rats (Harlen) were used. On day 0, isoflurane anesthetized animals were given an intradermal injection, at base of tail, 0.75 mg of mycobacterium butyricum (Difco #0640-33-7) mixed in 100 μl incomplete Freund's adjuvant (Difco, Detroit, Mich.).
The human anti-HMG1 antibody G4, the A-box-Fc fusion and the huIgG isotype control were administered at 10 mg/kg, every 3 days, day 0-15. Methotrexate was administered at 0.8 mg/kg, every 6 days, day 0-15 and Renbrel was administered at either 2.5 mg/kg every two days, day 0-15 for treatment group 5 or at 4 mg/kg, every 3 days, day 0-15 for treatment group 6. […]
Monitoring Disease: Beginning at day 6 all animals were observed daily to assess the status of the disease in their paws, which was done by assigning a qualitative clinical score to each of the paws. Every day, each animal has its 4 paws scored according to its state of clinical disease. […] In addition, each mouse is weighed, to follow body weight changes, at the same time the paws are scored.
The joints of the 4 lateral digits of each paw are graded as involved or not involved, i.e., 1 or 0. For example, a maximally involved left rear paw would be scored: ankles=4, midfoot=4, MTP=4, PIP=4, DIP=4 (20 units). […]

[2] = target: T1, HMG1 (recombinant, native; immobilized, soluble) (Homo sapiens, UniProt P09429); assay: Direct and sandwich (capture) ELISA comparing forms of HMG1; type: binding; settings: capture ELISA
T1 construct: made in house; host or cells: E. coli
T1 sequence (P09429 1-215): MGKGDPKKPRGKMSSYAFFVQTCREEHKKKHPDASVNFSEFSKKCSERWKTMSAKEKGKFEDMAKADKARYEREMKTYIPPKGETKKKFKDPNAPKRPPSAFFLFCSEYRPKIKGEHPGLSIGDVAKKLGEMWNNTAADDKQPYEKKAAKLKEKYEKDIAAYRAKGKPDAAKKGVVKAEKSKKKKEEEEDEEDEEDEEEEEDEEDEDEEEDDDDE
Summary of the method: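 Direct format: HMGB-1 coated at 5 μg/ml, human anti-HMG1 antibodies titrated, anti-human IgG-HRP, A450. Sandwich format: antibodies (from 20 μg/ml, serial dilutions) captured on anti-human IgG Fc, then soluble HMGB1 at 2 μg/ml (native 0.7 μg/ml), mouse anti-HMGB1 at 1 μg/ml, anti-mouse IgG-HRP, A450; steps 1 h, 37° C.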

B1: S16: human anti-HMG1 antibody, ATCC PTA-6259; VL/VH aa SEQ ID NO: 13/15 (antibody, listed as Homo sapiens, V domains shown)
VH: EVQLLESGGGLVQPGGSLRLSCAASGFTFSWYSMLWVRQAPGKGLEWVSYISPSGGFTNYADSVKGRFTISRDNSKNTLYLQMNSLRAEDTAVYYCARWDYNSGWYYDHWGQGTLVTVSS
VL: AQDIQMTQSPDTLSLSPGERATLSCRASQSVNSRNLAWYQQKPGQAPRLLIYGASTRATGIPDRFSGSVSGTEFTLTISSLQPDDFATYYCQQYNSYFTFGQGTKLEIK
[1]
  in vivo AIA: 0%
[2]
  binding to native nuclear, necrotic (released) and activated HMG1: little difference in binding to the various native forms of HMG1
